Data: patent US6942981
Ends that are not written are not given here. * marks the point of attachment. Biotin = O=C1N[C@H]2[C@H](CS[C@H]2CCCCC(=O)*)N1

T1: GST-MINT3 PDZ domain fusion protein (human)
T1 construct: also called human MINT3; not shown: glutathione S-transferase (GST) encoded by pGEX-3X
T1 chain: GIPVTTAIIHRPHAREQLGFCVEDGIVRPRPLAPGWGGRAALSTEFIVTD

T2: GST-LIM (Human LIM protein) PDZ domain fusion protein (human, UniProt Q96HC4 2-85)
T2 construct: not shown: glutathione S-transferase (GST) encoded by pGEX-3X
T2 sequence: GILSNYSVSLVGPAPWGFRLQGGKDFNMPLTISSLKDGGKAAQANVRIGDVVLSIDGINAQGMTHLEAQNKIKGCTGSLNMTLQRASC

T3: GST-prIL16 PDZ domains 1-2 fusion protein (Homo sapiens (Human), UniProt Q14005 1110-1325)
T3 construct: also called putative interleukin 16 precursor; not shown: glutathione S-transferase (GST) encoded by pGEX-3X
T3 sequence: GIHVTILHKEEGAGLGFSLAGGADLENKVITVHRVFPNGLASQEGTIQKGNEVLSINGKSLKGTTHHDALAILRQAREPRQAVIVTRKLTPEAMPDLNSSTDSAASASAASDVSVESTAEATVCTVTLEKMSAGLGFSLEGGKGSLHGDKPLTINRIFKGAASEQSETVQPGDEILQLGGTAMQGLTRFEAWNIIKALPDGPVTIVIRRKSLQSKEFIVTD

T4: GST-TAX2 PDZ domain fusion protein (human, UniProt O14908 129-216)
T4 construct: not shown: glutathione S-transferase (GST) encoded by pGEX-3X
T4 chain: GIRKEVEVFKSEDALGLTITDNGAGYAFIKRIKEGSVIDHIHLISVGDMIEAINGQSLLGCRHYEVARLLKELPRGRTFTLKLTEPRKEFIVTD

T5: GST-AF6 PDZ domain fusion protein (Homo sapiens (Human), UniProt P55196 1001-1093)
T5 construct: also called af-6 protein; not shown: glutathione S-transferase (GST) encoded by pGEX-3X
T5 sequence: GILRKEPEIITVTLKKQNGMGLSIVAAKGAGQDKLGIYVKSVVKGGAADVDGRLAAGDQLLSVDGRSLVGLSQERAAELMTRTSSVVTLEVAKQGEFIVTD

T6: GST-TAX40 PDZ domain fusion protein (human, UniProt Q6B4M5 150-251 (rat entry))
T6 construct: not shown: glutathione S-transferase (GST) encoded by pGEX-3X
T6 sequence: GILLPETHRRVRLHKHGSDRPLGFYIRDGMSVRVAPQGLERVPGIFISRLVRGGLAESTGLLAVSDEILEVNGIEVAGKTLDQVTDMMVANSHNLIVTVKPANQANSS

T7: GST-NeDLG PDZ domains 1-2 fusion protein (Mus musculus (Mouse), UniProt P70175 147-332)
T7 construct: also called NeDLG1; not shown: glutathione S-transferase (GST) encoded by pGEX-3X
T7 chain: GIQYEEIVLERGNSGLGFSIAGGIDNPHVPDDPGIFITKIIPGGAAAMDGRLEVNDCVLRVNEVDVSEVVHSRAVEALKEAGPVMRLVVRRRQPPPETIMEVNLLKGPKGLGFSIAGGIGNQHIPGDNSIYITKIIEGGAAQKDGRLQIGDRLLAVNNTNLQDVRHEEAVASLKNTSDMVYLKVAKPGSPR


Experiments:
[1] = biological target: T1, GST-MINT3 PDZ domain fusion protein; experiment: A/G assays
[2] = biological target: T2, GST-LIM (Human LIM protein) PDZ domain …; experiment: A/G assays
[3] = biological target: T3, GST-prIL16 PDZ domains 1-2 fusion …; experiment: A/G assays
[4] = biological target: T4, GST-TAX2 PDZ domain fusion protein; experiment: A/G assays
[5] = biological target: T5, GST-AF6 PDZ domain fusion protein; experiment: A/G assays
[6] = biological target: T6, GST-TAX40 PDZ domain fusion protein; experiment: A/G assays
[7] = biological target: T8, GST-PSD95 PDZ domains 1-3 fusion protein (human, UniProt P31016 58-395 (rat entry)); experiment: A assay
T8 construct: not shown: glutathione S-transferase (GST) encoded by pGEX-3X

[8] = biological target: T7, GST-NeDLG PDZ domains 1-2 fusion protein; experiment: G assay
[9] = biological target: T7, GST-NeDLG PDZ domains 1-2 fusion protein; experiment: A/G assays

T8 sequence (P31016 other isoform, or with tags, fused parts or gaps): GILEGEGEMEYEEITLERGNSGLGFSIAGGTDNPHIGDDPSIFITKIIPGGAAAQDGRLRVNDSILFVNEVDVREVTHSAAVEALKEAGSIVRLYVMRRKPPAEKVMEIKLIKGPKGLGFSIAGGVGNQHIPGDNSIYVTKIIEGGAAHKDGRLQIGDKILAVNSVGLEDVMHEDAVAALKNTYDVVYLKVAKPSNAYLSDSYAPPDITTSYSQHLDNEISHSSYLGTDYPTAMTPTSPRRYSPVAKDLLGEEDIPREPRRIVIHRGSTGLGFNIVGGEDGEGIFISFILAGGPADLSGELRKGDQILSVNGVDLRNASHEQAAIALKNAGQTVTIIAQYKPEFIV

| binding result [1] | binding result [2] | binding result [3] | binding result [4] | binding result [5] | binding result [6] | binding result [7] | binding result [8] | binding result [9] | Binder |
| --- | --- | --- | --- | --- | --- | --- | --- | --- | --- |
| no binding | no binding | no binding | no binding | no binding | no binding | binds | binds | – | Biotin-QATSRNGHSARQHVVADTEL [CD34 C-terminal peptide AA7L] |
| no binding | no binding | no binding | no binding | no binding | no binding | – | – | no binding | Biotin-TIYENLAPVTTFGKTIA [CD148 peptide AA55L (ending KTIA)] |
